The results in this text go back to patent publication US5854025.

For test [1], the target named is insulin receptor on H35 cells (rat) (UniProt P15127). Put plainly: displacement of 125I-insulin from H35 cells (insulin receptor). For orientation: Loss of bound radioactivity is the signal in a displacement assay; it reports binding, not function.
Test [2] concerns the target type 2 IGF receptor on H35 (rat hepatoma) cells (rat). Description: displacement of 125I-IGF-II from H35 cells (type 2 IGF receptor); refolded preparation.
For test [3] the target is unchanged. Put plainly: displacement of 125I-IGF-II from H35 cells (type 2 IGF receptor); secreted preparation.
Test [4] shares this target. Put plainly: displacement of 125I-IGF-II from H35 cells (type 2 IGF receptor).

Sequence of IGF-II (Q^37 Q^38) (ligand) (chain): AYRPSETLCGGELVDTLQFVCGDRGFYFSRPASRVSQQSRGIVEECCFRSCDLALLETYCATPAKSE
Sequence of recombinant IGF-II from a commercial supplier (Bachem), reference standard (ligand) (chain): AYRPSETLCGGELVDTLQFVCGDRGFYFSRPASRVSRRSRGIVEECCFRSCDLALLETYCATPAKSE

insulin (ligand): in test [1], the IC50 (usually the concentration that gives 50% inhibition) came to 0.0048 µg/mL.

For IGF-II (Q^37 Q^38) (ligand), the IC50 came to 0.06 µg/mL in test [2] and 0.03 µg/mL in test [3].

Consider “wild-type IGF-II, refolded material (made by the HRP fusion route, pSD28, cyanogen bromide cleavage and refolding) (ligand)”, for which the IC50 in test [4] is 0.03 µg/mL.

In turn, “recombinant IGF-II from a commercial supplier (Bachem), reference standard (ligand)” showed an IC50 in test [4] of 0.018 µg/mL.
